Experimental data taken from patent US20240327530A1 (ICHNOS SCIENCES, published 2024).

How the values were obtained:
[1] = target: T1, Mouse IL-1RAP, membrane-bound on NIH-3T3 cells (mouse, UniProt Q61730 21-570); test: flow cytometry on NIH-3T3 cells, nonlinear sigmoidal regression
T1 construct: Endogenous protein on cells
T1 sequence (looked up): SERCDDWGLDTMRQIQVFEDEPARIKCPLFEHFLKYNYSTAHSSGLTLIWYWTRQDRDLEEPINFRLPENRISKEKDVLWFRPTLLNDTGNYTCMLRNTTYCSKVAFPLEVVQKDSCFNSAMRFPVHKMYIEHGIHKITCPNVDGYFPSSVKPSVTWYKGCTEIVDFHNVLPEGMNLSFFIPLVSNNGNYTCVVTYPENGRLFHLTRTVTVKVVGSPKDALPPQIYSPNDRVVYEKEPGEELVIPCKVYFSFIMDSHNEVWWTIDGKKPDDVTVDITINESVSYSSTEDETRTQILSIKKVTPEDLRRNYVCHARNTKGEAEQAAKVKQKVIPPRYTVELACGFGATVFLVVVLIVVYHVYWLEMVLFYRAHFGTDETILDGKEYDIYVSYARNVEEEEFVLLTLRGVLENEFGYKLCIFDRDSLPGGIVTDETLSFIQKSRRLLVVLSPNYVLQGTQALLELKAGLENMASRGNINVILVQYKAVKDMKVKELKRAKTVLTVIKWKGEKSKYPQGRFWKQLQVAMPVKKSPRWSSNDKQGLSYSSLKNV
Method: In brief, cells were harvested, counted, and plated at 50′000 cells/well in a 96-well round-bottom plate. The plate was centrifuged at 350 g for 3 minutes and the cells were resuspended in […] of FACS® buffer (PBS (1×)+2.5% FCS+2 mM EDTA+0.05% NaN₃) containing various concentrations (ranging from 20 to 0.0001 μg/ml) of either anti-mouse IL-1RAP_candidate_1 or Isotype control_2 antibodies. Stained cells were incubated for 30 minutes at 4° C., washed twice with FACS® buffer at 350 g for 3 min and resuspended in 100 μl of a monoclonal anti-mouse IgG PE-Cyanine7 secondary antibody (Biolegend, 407114) diluted 1/200 in FACS® buffer. Cells were then washed twice, and resuspended in 200 μl of FACS® buffer containing SYTOX® Green dead cell stain (THERMO FISHER […]®, S34860) and samples were acquired on a CYTOFLEX® instruments (Beckman Coulter). The cells were gated based on size on FSC vs SSC and analysed for PE-Cyanine7-geometric mean (geomean) fluorescence intensity using FLOWJO® software. Finally, relative geomean fluorescence intensity was calculated by subtracting fluorescence of anti-mouse IL-1RAP_candidate_1 per fluorescence of Isotype control_2. As depicted in FIG. 11, anti-mouse IL-1RAP_candidate_1 antibody recognizes membrane-bound IL-1RAP expressed on NIH-3T3 cell line. […] Each data point is a measurement for a given cell line. […]

[2] = target: T2, Recombinant mouse IL-1RAP-his (Sino Biologicals, catalog no. 52657-M08H) (mouse, UniProt Q61730 21-350); test: SPR, mouse IgG2a LALA captured by anti-mouse Fc, mouse IL-1RAP-his as analyte, 1:1 fit
T2 construct: Bought; not shown: His tag of the bought protein
T2 sequence: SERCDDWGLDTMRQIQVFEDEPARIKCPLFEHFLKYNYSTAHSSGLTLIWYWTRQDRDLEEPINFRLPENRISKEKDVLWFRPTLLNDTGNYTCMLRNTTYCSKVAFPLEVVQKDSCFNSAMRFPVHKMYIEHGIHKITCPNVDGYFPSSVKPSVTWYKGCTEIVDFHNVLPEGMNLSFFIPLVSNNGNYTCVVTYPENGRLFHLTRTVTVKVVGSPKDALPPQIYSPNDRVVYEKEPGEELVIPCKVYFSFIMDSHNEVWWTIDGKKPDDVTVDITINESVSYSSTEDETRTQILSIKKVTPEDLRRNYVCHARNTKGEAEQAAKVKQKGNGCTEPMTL
Method: Surface plasmon resonance (SPR) was used to measure the binding affinities of mouse IgG2a LALA molecules for mouse IL-1RAP. Affinity was measured on a BIACORE™ T200 instrument (BIACORE™ GE […]®) at 25° C. and analyzed with the BIACORE™ T200 Evaluation Software (v3.1). Measurements were performed on Series S CM5 sensor chips (BIACORE™ T200, BIACORE™, GE […]®, catalog no. BR100530) coupled with anti-mouse IgG Fc (BIACORE™, GE […]®, catalog no. BR100838) using a commercial amine coupling kit (BIACORE™, GE […]®, catalog no. BR100050). SPR measurements were performed with commercially available recombinant mouse IL-1RAP-his (Sino Biologicals, catalog no. 52657-M08H). The affinity to mouse IL-1RAP was assessed by immobilizing anti-mouse IL-1RAP mouse IgG2a LALA molecule and using mouse IL-1RAP protein as analyte. Around 150 RU of mouse IgG2a LALA was captured on fc2 of a Series S CM5 sensor chip coupled with anti-mouse IgG Fc. Mouse IL-1RAP-his was injected in multi cycle kinetic at different concentrations ranging from 0.14 to 100 nM, in HBS-EP+ buffer (BIACORE™, GE […]®, catalog no. BR100669) at a flow rate of 30 μl/min for 3 min on fc1 and fc2 (fc1 being used as reference). Dissociation was monitored for 15 min. After each cycle, the surface was regenerated with 60 μl of regeneration solution provided with anti-mouse IgG Fc capture kit (BIACORE™ GE […]®, catalog no. BR100838). Experimental data were processed using the 1:1 Langmuir kinetic fitting model. Measurements included zero-concentration samples for referencing. Chi², U- and residual values were used to evaluate the quality of a fit between the experimental data and individual binding models.

B1: Anti-IL-1RAP-C3-A3 mmIgG2a LALA (antibody, V domains shown)
VH: EVQLLESGGGLVQPGGSLRLSCAASGFIFSHYGMSWVRQAPGKGLEWVSAISYDGEGTLYADSVKGRFTISRDNSKNTLYLQMNSLRAEDTAVYYCARFRYYTAFDYWGQGTLVTVSS
VL: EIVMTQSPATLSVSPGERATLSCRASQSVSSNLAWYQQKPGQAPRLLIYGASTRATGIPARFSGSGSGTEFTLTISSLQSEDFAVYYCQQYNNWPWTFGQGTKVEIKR
notes: also called anti-IL-1RAP-C3-A3 mouse IgG2a LALA
Kd [1]: 1.15 nM | Kd [2]: 0.545 nM | koff [2]: 7.46e-05 s⁻¹ | kon [2]: 138000 M⁻¹ s⁻¹
